Reference: patent US20190255093A1

Assays:
[1] = molecular target: murine proMyostatin (mouse) (UniProt O08689); experiment: method not stated
[2] = molecular target: latent myostatin in serum and muscle of mice (mouse) (UniProt O08689); experiment: cell-based or functional assay

Kd [1] | latent myostatin signal in muscle (fluorescent western blot, normalized to total protein, compared to WT mice) [2] | Substance
8.35 nM |  | SRK-015 (antibody)
2.57 nM |  | muSRK-015 (antibody)
2.88 nM | 3 fold | muSRK-015P (antibody)
